According to patent US20130331550A1 (TECHNISCHE UNIVERSITAET MUENCHEN, published 2013):

Molecular target: the molecule itself
Assay: analytical size exclusion chromatography and analytical ultracentrifugation (sedimentation equilibrium); self-association (dimer) not seen
Method: Bovine serum albumin (66 kDa, Vᵣ=9.861 ml), carbonic anhydrase (29 kDa, Vᵣ=12.35 ml), myoglobin (17.05 kDa, Vᵣ=13.244 ml), cytochrome C (12.4 kDa, Vᵣ=14.11 ml), and aprotinin (6.5 kDa, Vᵣ=16.35 ml) were used as protein size standards for calibration of the column while the void volume was determined with blue dextran (V₀=8.08 ml).
Sedimentation equilibrium experiments were performed using an XL-I analytical ultracentrifuge and a Ti-60 rotor equipped with a UV/Vis as well as interference detector (Beckman, Fullerton, Calif.). An 0.8 mg/ml solution of the purified recombinant Blc in 150 mM NaCl, 1 mM EDTA, 100 M Tris/HCl pH 8.0 was applied to six-sector 12 mm path length cells. The samples were centrifuged at 25000 rpm for 72 h at 4° C., until equilibrium was reached, whereby the protein gradient was measured by UV absorption at 280 nm.

B1: recombinant Blc (Escherichia coli bacterial lipocalin, Cys1Ala/Cys113Ser, C-terminal Strep-tag II, as encoded on pBlc2) (other)
chain: ASSPTPPRGVTVVNNFDAKRYLGTWYEIARFDHRFERGLEKVTATYSLRDDGGLNVINKGYNPDRGMWQQSEGKAYFTGAPTRAALKVSFFGPFYGGYNVIALDREYRHALVSGPDRDYLWILSRTPTISDEVKQEMLAVATREGFDVSKFIWVQQPGSAWSHPQFEK
notes: The construct has 168 residues (159 + 9 tag residues)
binding result: no binding (tested: about 40 µM)
